Earlier results as cited in publication PMC8690575.
pKd: −log10 of the molar value.

Biological target: Rhodopsin (Mus musculus) (UniProt P15409)

pKd: 3.82
Substance: Arrestin-1 (from UniProt P20443)
